Binding result and Kd data for 1 molecule are collected here from article PMC6680903 (Molecules, 2019).

The target of one assay is T1, BSA (Bos taurus, UniProt P02769).
T1 construct: BSA (bovine serum albumin); also called negative control - BSA
The experiment in a line: laser scanning confocal fluorescence imaging of protein-coated beads; β2M or BSA coupled to CNBr-activated Sepharose 4 Fast Flow beads; incubated with labeled NB-1 (10 μg/mL in PBS) 5 min at room temperature; washed five times with PBS; FV1000 microscope. Conditions: both partners purified.

The target of the next assay is T2, β2-Microglobulin (β2M) (Homo sapiens, UniProt P61769).
T2 construct: β2-microglobulin, human (the title says anti-human β2-microglobulin VHHs); Probably the mature protein without the signal peptide (surmised); also called antigen β2M; human β2-microglobulin; source: expressed and purified as previously described [27]
The experiment in a line: SPR; Biacore T200; β2M immobilized on a CM5 chip to 150 RU; 2-fold serial diluted VHH at 30 μL/min in HBS-EP+; 25 °C; 1:1 binding model; VHH samples after incubation with NHS-Fluo at molar ratio 0 (negative control), 1, 5 or 20 and ultrafiltration. Conditions: both partners purified. On the technique in general: In SPR one partner is held on a chip, and binding of the other changes the refractive index at the surface.

T1 sequence (P02769 25-607): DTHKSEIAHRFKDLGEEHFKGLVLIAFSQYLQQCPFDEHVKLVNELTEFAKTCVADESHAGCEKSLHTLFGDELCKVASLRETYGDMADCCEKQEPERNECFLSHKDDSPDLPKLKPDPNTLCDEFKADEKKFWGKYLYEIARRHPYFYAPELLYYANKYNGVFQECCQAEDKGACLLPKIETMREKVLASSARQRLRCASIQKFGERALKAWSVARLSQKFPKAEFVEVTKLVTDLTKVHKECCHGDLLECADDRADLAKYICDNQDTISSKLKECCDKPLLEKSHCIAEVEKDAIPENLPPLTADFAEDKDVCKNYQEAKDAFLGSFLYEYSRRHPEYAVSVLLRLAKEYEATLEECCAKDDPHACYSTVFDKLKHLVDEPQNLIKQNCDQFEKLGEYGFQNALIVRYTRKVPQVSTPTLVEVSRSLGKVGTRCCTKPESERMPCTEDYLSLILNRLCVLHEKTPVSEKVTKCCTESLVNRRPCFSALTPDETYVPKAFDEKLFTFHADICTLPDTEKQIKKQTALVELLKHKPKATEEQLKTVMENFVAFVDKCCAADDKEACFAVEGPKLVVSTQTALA
T2 sequence (P61769 21-119): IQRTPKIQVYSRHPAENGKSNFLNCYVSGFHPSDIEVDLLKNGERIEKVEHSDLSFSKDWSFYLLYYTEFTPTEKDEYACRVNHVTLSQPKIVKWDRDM

B1: NB-1 modified by a 20 fold amount of NHS-Fluo (VHH)
VHH: QVQLVESGGGLVQAGGSLRLSCAASGSTLDSYYIGWFRQAPGKEREGVSCISSSGNSIRYVDSVKDRFTISRDNGKNTAYLHINSLRPEDTAVYYCAASRRGRKPGLPCSLVRERYAYWGQGTQVTVSS
notes: VHH domain as in m2 (NB-1); flexible (G4S)4 linker between the VHH domain and the 6xHis-tag, written out from the printed formula; also called labeled NB-1; modified NB-1; source: E. coli SHuffle T7, purified (HisTrap HP), then modified with NHS-Fluo (2 h, 4 °C), ultrafiltration
B1: in the assay with BSA, the binding result is on record as “no binding (tested: 10 μg/mL)”. In addition, the equilibrium dissociation constant (Kd) (as a rule, the concentration at which binding is half-saturated) with β2-Microglobulin (β2M) is 297 nM.
